How the values were obtained:
[1] = target: T1, CD8 (cluster of differentiation 8), CD8ab (UniProt P01732 22-235; P10966 22-210); assay: flow cytometry on cells carrying CD8
T1 construct: whole, on cells; The method names Jurkat (TCR neg) CD8ab+ cells
Protocol: (§1) Cell based binding assays were performed on BD FACSymphony™ A5 Cell Analyzer. To determine binding affinity of AZD6621, C4-2 cells and Jurkat (TCR neg) CD8ab+ cells expressing Steap2 and CD8ab respectively were used for the assay. The cells were harvested and resuspended in FACS buffer (DPBS-1X, 2% FBS, & 5 mM EDTA) at 2×10e6 cells/ml. Cells were seeded in U-bottom Tissue Culture treated 96 Well-plate at 50 ul/well making the cell number at 100,000 per well. The test articles (AZD6621) titration were prepared (2×) using FACS buffer with the starting working concentration of 600 nM and with 1:4 dilution up to 8 titration points. Cells (50 ul/well) were then combined with primary antibody (50 ul/well) titration and incubated at 4° C. for 1 hour. After incubation, the cells were washed 2× using 200 ul of FACS buffer and resuspended with freshly prepared FACS buffer (100 ul/well) containing secondary antibody (Anti-H+L: Goat anti-Human IgG (H+L) Cross-Adsorbed Secondary Antibody, Alexa Fluor 647 (Invitrogen #A-21445) at 1:400 dilution) & DAPI (Live/Dead stain). The secondary antibody was incubated at 4° C. for 1 hour. […] The data was analyzed with FlowJo v 10.6.1. The target receptor binding was determined using geometric mean calculation on FlowJo software detecting the positive APC signal in each well. […]

[2] = target: T2, six transmembrane epithelial antigen of prostate-2 (STEAP2) (human, UniProt Q8NFT2 1-490); assay: flow cytometry on C4-2 cells expressing STEAP2
T2 construct: whole, on cells
T2 sequence (looked up): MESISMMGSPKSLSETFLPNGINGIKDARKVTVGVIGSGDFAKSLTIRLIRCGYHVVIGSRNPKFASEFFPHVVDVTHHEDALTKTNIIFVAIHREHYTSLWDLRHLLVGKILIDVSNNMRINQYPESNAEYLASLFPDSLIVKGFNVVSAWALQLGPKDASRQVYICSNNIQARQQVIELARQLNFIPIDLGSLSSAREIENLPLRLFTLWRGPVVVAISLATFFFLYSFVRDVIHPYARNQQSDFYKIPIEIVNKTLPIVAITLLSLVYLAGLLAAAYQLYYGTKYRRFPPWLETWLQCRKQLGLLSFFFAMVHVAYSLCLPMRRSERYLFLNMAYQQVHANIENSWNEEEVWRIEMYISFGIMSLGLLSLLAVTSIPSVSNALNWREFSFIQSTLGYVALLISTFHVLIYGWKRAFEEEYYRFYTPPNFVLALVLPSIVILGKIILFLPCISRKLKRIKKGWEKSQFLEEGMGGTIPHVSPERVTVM
Protocol: as §1

T1 sequence (P01732 22-235, chain 1 of 2): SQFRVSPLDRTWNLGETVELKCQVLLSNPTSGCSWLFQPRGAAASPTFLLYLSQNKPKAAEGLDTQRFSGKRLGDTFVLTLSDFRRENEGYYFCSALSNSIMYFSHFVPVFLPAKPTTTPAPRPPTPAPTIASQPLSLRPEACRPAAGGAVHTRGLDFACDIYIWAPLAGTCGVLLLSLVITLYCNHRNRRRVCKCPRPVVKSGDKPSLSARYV
T1 sequence (P10966 22-210, chain 2 of 2): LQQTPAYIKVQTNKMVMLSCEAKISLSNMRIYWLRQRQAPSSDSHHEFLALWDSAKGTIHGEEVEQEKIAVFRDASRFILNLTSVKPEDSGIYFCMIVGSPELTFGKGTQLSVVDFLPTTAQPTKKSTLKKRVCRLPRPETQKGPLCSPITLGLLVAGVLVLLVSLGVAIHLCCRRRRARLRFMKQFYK

B1: 40A3LO12-TED4-K17/E75 (other)
heavy 1: QVQLQQSGPGLVKPSQTLSLTCAISGDSVSRNSAVWNWIRQSPSRGLEWLGRTYYRSKWYNDYAVSVKSRITINPDTSKNQFSLQLNSVTPEDTAVYYCARGLRQNQFYYYMDVWGKGTTVTVSSASTKGPSVFPLAPSSKSTSGGTAALGCLVKDYFPEPVTVSWNSGALTSGVHTFPAVLQSSGLYSLKSVVTVPSSSLGTQTYICNVNHKPSNTKVDKRVEPKSCDGGGGSGGGGSEVQLVESGGALVKPGGSLRLSCAASGFTFTEAWMHWVRQAPGKQLEWVAQIKDRSQTYATYYAESVKGRFTISRDDSKNTLYLQMNSLKTEDTAVYYCRGVYYANAPFDYWGQGTLVTVSSASTKGPSVCPLAPSSKSTSGGTADLGCLVKDYFPEPVTVSWNSGALTSGVHTFPAVLQSSGLYSLSSVVTVPSSSLGTQTYICNVNHKPSNTKVDKRVEPKSVDKTHTCPPCPAPPVAGPSVFLFPPKPKDTLMISRTPEVTCVVVDVKHEDPEVKFNWYVDGVEVHNAKTKPREEQYNSTYRVVSVLTVLHQDWLNGKEYKCKVSNKALPAPIEKTISKAKGQPREPQVYTLPPCREEMTKNQVSLWCLVKGFYPSDIAVEWESNGQPENNYKTTPPVLDSDGSFFLYSKLTVDKSRWQQGNVFSCSVMHEALHNHYTQKSLSLSPGK
light 1: not shown
heavy 2: EVQLLESGGGLVQPGGSLRLSCAASGFTFDDYAIGWFRQAPGKEREGVSCIRVSDGSTYYADSVKGRFTISRDNSKNTLYLQMNSLRAEDTAVYYCAAGSLYTCVQSIVWPARPYYDMDYWGQGTLVTVSSGGGGSGGGGSQVQLQQSGPGLVKPSQTLSLTCAISGDSVSRNSAVWNWIRQSPSRGLEWLGRTYYRSKWYNDYAVSVKSRITINPDTSKNQFSLQLNSVTPEDTAVYYCARGLRQNQFYYYMDVWGKGTTVTVSSASTKGPSVFPLAPSSKSTSGGTAALGCLVKDYFPEPVTVSWNSGALTSGVHTFPAVLQSSGLYSLKSVVTVPSSSLGTQTYICNVNHKPSNTKVDKRVEPKSCDKTHTCPPCPAPPVAGPSVFLFPPKPKDTLMISRTPEVTCVVVDVKHEDPEVKFNWYVDGVEVHNAKTKPREEQYNSTYRVVSVLTVLHQDWLNGKEYKCKVSNKALPAPIEKTISKAKGQPREPQVCTLPPSREEMTKNQVSLSCAVKGFYPSDIAVEWESNGQPENNYKTTPPVLDSDGSFFLVSKLTVDKSRWQQGNVFSCSVMHEALHNHYTQKSLSLSPGK
light 2: DIVMTQSPLSLPVTPGEPASISCRSSQSLVHNTGNTYLSWYLQKPGQSPQSLIYKVSNRASGVPDRFSGSGSGTDFTLKISRVEAEDVGVYYCGQGTQAPFTFGSGTKVEIKGQPKAAPSVRLFPPCSEELQANKATLVCLISDFYPGAVTVAWKADSSPVKAGVETTTPSKQSNNKYAASSYLSLTPEQWKSHRSYSCQVTHEGSTVEKTVAPTEVS
notes: also called TED4 LO12
binding result [1]: binds | binding result [2]: binds
